Measurements: patent US20040192610A1

Biological target: rat neuronal nicotinic acetylcholine receptor, α7 subtype (rat) (UniProt Q05941)
Assay: cell-based or functional assay

Sequence of UniProt Q05941 (Q05941 23-502): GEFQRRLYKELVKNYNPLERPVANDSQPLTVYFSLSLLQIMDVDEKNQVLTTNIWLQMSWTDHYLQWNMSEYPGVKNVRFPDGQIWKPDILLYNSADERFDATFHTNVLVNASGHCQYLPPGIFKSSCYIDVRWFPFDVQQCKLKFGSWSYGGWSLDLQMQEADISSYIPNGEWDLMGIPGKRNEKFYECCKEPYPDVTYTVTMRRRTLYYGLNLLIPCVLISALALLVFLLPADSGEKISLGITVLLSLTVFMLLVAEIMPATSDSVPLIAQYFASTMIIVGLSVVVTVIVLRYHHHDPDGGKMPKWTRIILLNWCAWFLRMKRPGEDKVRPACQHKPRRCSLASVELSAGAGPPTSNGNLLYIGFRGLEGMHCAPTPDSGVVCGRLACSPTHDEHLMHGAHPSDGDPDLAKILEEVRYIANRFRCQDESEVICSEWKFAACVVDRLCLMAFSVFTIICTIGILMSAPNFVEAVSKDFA

Substance: α-conotoxin peptide PnIA
- IC50 of antagonistic activity (oocyte electrophysiology): 229 nmol
